The source of these data is patent US20040176285A1, “Tip39 polypeptides” (priority 2001, published 2004).

Test [1] deals with T1, PTH1R (Homo sapiens, UniProt Q03431).
T1 sequence (Q03431 27-593): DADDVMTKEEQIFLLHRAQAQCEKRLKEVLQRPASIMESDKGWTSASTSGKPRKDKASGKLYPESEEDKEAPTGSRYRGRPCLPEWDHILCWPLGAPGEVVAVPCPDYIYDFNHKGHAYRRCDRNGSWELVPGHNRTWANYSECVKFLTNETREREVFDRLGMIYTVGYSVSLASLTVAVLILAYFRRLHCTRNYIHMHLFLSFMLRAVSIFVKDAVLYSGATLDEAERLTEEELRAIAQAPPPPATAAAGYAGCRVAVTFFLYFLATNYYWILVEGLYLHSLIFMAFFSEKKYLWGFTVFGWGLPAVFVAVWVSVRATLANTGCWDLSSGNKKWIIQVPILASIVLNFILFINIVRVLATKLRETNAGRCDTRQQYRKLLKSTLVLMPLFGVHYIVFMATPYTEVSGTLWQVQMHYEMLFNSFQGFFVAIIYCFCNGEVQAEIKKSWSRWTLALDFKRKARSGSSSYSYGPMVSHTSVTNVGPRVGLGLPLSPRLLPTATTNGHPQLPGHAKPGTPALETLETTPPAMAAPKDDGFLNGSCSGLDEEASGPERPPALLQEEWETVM
The test can be described thus: Ligand-stimulated cAMP accumulation in HKrk-B7 cells. In kind it is cell-based. Also on record: expressed in transfected cells. The settings on record: HKrk-B7 cells. The procedure: (§1) DMEM, Trypsin/EDTA, and penicillin G/streptomycin and horse serum were from Gibco/BRL, Life Technologies, Gaithersburg, Md. LLC-PK, expressing the recombinant human PTH1R (HKrk-B7 cells) and SaOS-2 cells expressing the wild-type PTH1R endogenously were cultured in DMEM supplemented with 10% heat-inactivated fetal bovine serum, 100 U/ml penicillin, 100 μg/ml streptomycin, as previously described (Gardella, T. J., et al., J. Biol. Chem. 271:19888-19893 (1996); Fukayama, S., et al., Endocrinology 134:1851-1858 (1994)); both cell lines were maintained in a humidified atmosphere containing 95% air and 5% CO2. After seeding, medium was replaced daily, until cells were used for radioligand binding or cAMP accumulation assays.
(§2) Na^125I (specific activity: 2,000 Ci/mmol) was purchased from DuPont/NEN, Boston, Mass. Fetal bovine serum, 3-isobutyl-1-methyl-xanthine (IBMX), and BSA were from Sigma, St. Louis, Mo., and trifluoroacetic acid (TFA) was from Pierce, Rockford, Ill. Radiolabeled rPTH(1-34) and PTHrP(1-36) were prepared by the chloramine-T method, followed by HPLC purification using a 30-50% ACN/0.1% TFA gradient over 30 minutes; radioreceptor assays were performed in 24-well plates as previously described (Gardella, T. J., et al., J. Biol. Chem. 271:19888-19893 (1996); Fukayama, S. et al., Endocrinology 134:1851-1858 (1994)). In brief, each well (final volume 500 μl) contained binding buffer (BB; 50 mM Tris-HCl (pH 7.7), 100 mM NaCl, 5 mM KCl, 2 mM CaCl2, 5% heat-inactivated horse serum, and 0.5% heat-inactivated fetal bovine serum), the ^125I-labeled PTH or PTHrP analog (100,000 to 200,000 cpm) was incubated in the absence or presence of increasing concentrations of unlabeled peptides. After 4 h at 16° C., buffer was completely removed, the cells were rinsed with cold BB and lysed with 1 M NaOH. The entire lysate was counted for γ-irradiation. Specific binding was determined after subtracting radioactivity bound in the presence of maximal concentrations of unlabeled competing peptide (10^−6 M). Agonist-dependent stimulation of cAMP accumulation by HKrk-B7 and SaOS-2 cells (48-well plates; stimulation at room temperature for 45 minutes) and the subsequent measurement of cAMP by radioimmunoassay was performed as previously described (Gardella, T. J., et al., J. Biol. Chem. 271:19888-19893 (1996); Bergwitz, C., et al., Endocrinology 139:723-732 (1998)). Data were analyzed and graphically illustrated using the graph-pad prism software package.
The values for EC50 and Vmax (mean±SE) are derived from at least three independent experiments.
(cAMP levels reflect the balance of adenylyl cyclase and phosphodiesterase activity.)

Test [2] has as its target T1, PTH1R. The test can be described thus: Radioreceptor binding assay with HKrk-B7 cells. Also on record: expressed in transfected cells. The settings on record: either radioligand. As for the experimental part:
as §1, §2
The binding properties of these peptides were evaluated in radioreceptor assays with HKrk-B7 cells, which express the PTH IR at high density (approximately […]) (Carter, P. H., et al., Endocrinology 140:4972-4981 (1999)), using either radiolabeled rPTH(1-34) or PTHrP(1-36).
The calculated IC50 values (mean±SE) are derived from at least three independent experiments.

Test [3] deals with T2, human PTH/PTHrP receptor (PTH1R) (human, UniProt Q03431 27-593).
T2 construct: whole, on cells; HKrk-B7 cells about 10^6 receptors/cell; SaOS-2 about 30,000 receptors/cell; also called hPTH-1 receptor; PTH-1 receptor
T2 sequence (looked up): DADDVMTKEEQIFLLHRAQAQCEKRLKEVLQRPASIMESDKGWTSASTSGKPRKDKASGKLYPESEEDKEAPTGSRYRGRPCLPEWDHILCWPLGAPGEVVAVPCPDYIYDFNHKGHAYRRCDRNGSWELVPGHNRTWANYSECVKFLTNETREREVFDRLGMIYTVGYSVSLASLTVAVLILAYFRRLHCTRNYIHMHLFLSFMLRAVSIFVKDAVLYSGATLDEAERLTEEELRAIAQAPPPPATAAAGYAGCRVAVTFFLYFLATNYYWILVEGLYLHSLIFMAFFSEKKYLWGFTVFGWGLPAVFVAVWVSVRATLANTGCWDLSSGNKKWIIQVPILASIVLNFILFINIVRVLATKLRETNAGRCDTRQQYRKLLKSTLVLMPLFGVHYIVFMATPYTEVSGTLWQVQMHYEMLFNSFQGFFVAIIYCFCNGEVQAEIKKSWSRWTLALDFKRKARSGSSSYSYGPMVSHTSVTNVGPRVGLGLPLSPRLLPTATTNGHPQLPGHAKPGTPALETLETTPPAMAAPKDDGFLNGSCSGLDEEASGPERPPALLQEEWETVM
Kind of test: radioreceptor competition on HKrk-B7 cells; tracer 125I-rat [Nle8,21,Tyr34]PTH(1-34)amide. As for the experimental part: (§3) Na¹²⁵I (specific activity: 2,000 Ci/mmol) was purchased from DuPont/NEN, Boston, Mass. Fetal bovine serum, 3-isobutyl-1-methyl-xanthine (IBMX), and BSA were from Sigma, St. Louis, Mo., and trifluoroacetic acid (TFA) was from Pierce, Rockford, Ill. […] After 4 h at 16° C., buffer was completely removed, the cells were rinsed with cold BB and lysed with 1 M NaOH. The entire lysate was counted for γ-irradiation. Specific binding was determined after subtracting radioactivity bound in the presence of maximal concentrations of unlabeled competing peptide (10⁻⁶ M). Agonist-dependent stimulation of cAMP accumulation by HKrk-B7 and SaOS-2 cells (48-well plates; stimulation at room temperature for 45 minutes) and the subsequent measurement of cAMP by radioimmunoassay was performed as previously described (Gardella, T. J., et al., J. Biol. Chem. 271:19888-19893 (1996); Bergwitz, C., et al., Endocrinology 139:723-732 (1998)). Data were analyzed and graphically illustrated using the graph-pad prism software package.

The target of test [4] is T2, human PTH/PTHrP receptor (PTH1R). Kind of test: radioreceptor competition on HKrk-B7 cells; tracer 125I-[Tyr36]PTHrP(1-36)amide. The procedure:
as §3

Test [5] shares this target. Kind of test: cell-based or functional assay.

Entries after “also recorded” stand apart in the source; their conditions may differ. Where no end group is shown, it is not given here.

For “TIP(19-39): TIP39 analog truncated at the amino-terminus, residues 19-39, bovine sequence (ALERRHWLNSYMHKLLVLDAP)”, the “stimulation of cAMP accumulation at the PTH1R (in words)” value with PTH1R [1] is recorded as “lack of second messenger formation”. For the same molecule, the “inhibition of radioligand binding to the PTH1R (in words)” value with PTH1R [2] is recorded as “did not inhibit the binding of either radioligand; also recorded: no detectable binding”.
In the case of “TIP(23-39): TIP39 analog truncated at the amino-terminus, residues 23-39, bovine sequence (RHWLNSYMHKLLVLDAP)”, the “increase in cAMP accumulation over basal” value with PTH1R [1] (high molar concentrations) was about 2 fold over basal. In the test with PTH1R [2], the “inhibition of radioligand binding to the PTH1R (in words)” value is “did not inhibit the binding of either radioligand; also recorded: no detectable binding”.
On to “[Ile^7]TIP(1-39): TIP(1-39) having Asp7 replaced by the corresponding isoleucine of PTH (SLALADIAAFRERARLLAALERRHWLNSYMHKLLVLDAP)”, for which the “stimulation of cAMP accumulation at the PTH1R (in words)” value with PTH1R [1] was “None of these peptides, however, stimulated cAMP formation; also recorded: no activation of the PTH1R”.
In the case of H-AVSEHQLLHDKGKSIQDLRRRHWLNSYMHKLLVLDAP-NH2 (also called PTHrP/TIP chimera) [PTHrP(1-20)/TIP(23-39)], the half-inhibitory concentration (IC50) in test [3] came to 31 nM; in test [4], 11 nM. In addition, the “EC50 of cAMP accumulation, HKrk-B7 cells” value in test [5] amounted to 1.4 nM. Besides, the “EC50 of cAMP accumulation, SaOS-2 cells” value in test [5] worked out at 0.38 nM.
Turning to SVSEIQLMHNLGKHLNSMERVEWLRKKLQDVHNY (not fully specified (C-terminus)) [[Tyr^34] human PTH(1-34)amide], the “EC50 of cAMP accumulation, SaOS-2 cells” value in test [5] was 0.3 nM.

Usually IC50 stands for the midpoint of a concentration-inhibition curve.
